The values that follow come from the Human Domainome abundance scans (Beltran et al. 2025).

± gives the uncertainty stated by the source.

To fix the notation:
B1: Steroid hormone receptor ERR2, residues 100 to 176; numbered along this chain, O95718 (parent)
chain: KRLCLVCGDIASGYHYGVASCEACKAFFKRTIQGNIEYSCPATNECEITKRRRKSCQACRFMKCLKVGMLKEGVRLD

The variants in the data set derive from B1. The data set is described as follows: abundance fitness (aPCA) (normalised: wild type 0, dead -1); higher = more abundant; growth selection in yeast, the domain comes from the species named. The following applies: Homo sapiens.
Turning to KRLCLVCGDIASGYHYGVASCEACKAFFKRTIQGNIEYSCMATNECEITKRRRKSCQACRFMKCLKVGMLKEGVRLD, the abundance fitness is -0.161 ± 0.061.
For KRLCLVCGDIASGYHYGVASCEACKAFFKRTIQGNIEYSCRATNECEITKRRRKSCQACRFMKCLKVGMLKEGVRLD, the abundance fitness was -0.158 ± 0.042.
As for KRLCLVCGDIASGYHYGVASCEACKAFFKRTIQGNIEYSCLATNECEITKRRRKSCQACRFMKCLKVGMLKEGVRLD, the figure is -0.134 ± 0.045; as for KRLCLVCGDIASGYHYGVASCEACKAFFKRTIQGNIEYSCGATNECEITKRRRKSCQACRFMKCLKVGMLKEGVRLD, 0.128 ± 0.039; as for KRLCLVCGDIASGYHYGVASCEACKAFFKRTIQGNIEYSCIATNECEITKRRRKSCQACRFMKCLKVGMLKEGVRLD, -0.071 ± 0.078.
As for KRLCLVCGDIASGYHYGVASCEACKAFFKRTIQGNIEYSCEATNECEITKRRRKSCQACRFMKCLKVGMLKEGVRLD, the figure is 0.057 ± 0.053; as for KRLCLVCGDIASGYHYGVASCEACKAFFKRTIQGNIEYSCAATNECEITKRRRKSCQACRFMKCLKVGMLKEGVRLD, 0.056 ± 0.043.
As for KRLCLVCGDIASGYHYGVASCEACKAFFKRTIQGNIEYSCKATNECEITKRRRKSCQACRFMKCLKVGMLKEGVRLD, the figure is -0.037 ± 0.06; as for KRLCLVCGDIASGYHYGVASCEACKAFFKRTIQGNIEYSCVATNECEITKRRRKSCQACRFMKCLKVGMLKEGVRLD, 0.093 ± 0.04.
On to KRLCLVCGDIASGYHYGVASCEACKAFFKRTIQGNIEYSCTATNECEITKRRRKSCQACRFMKCLKVGMLKEGVRLD, for which the abundance fitness is -0.147 ± 0.063.
As for KRLCLVCGDIASGYHYGVASCEACKAFFKRTIQGNIEYSCHATNECEITKRRRKSCQACRFMKCLKVGMLKEGVRLD, the figure is -0.028 ± 0.087.
On to KRLCLVCGDIASGYHYGVASCEACKAFFKRTIQGNIEYSCYATNECEITKRRRKSCQACRFMKCLKVGMLKEGVRLD, for which the abundance fitness came out at 0.018 ± 0.069.
As for KRLCLVCGDIASGYHYGVASCEACKAFFKRTIQGNIEYSCQATNECEITKRRRKSCQACRFMKCLKVGMLKEGVRLD, the figure is -0.045 ± 0.063; as for KRLCLVCGDIASGYHYGVASCEACKAFFKRTIQGNIEYSCFATNECEITKRRRKSCQACRFMKCLKVGMLKEGVRLD, -0.214 ± 0.1.
As for KRLCLVCGDIASGYHYGVASCEACKAFFKRTIQGNIEYSCSATNECEITKRRRKSCQACRFMKCLKVGMLKEGVRLD, the figure is -0.137 ± 0.047.
For KRLCLVCGDIASGYHYGVASCEACKAFFKRTIQGNIEYSCWATNECEITKRRRKSCQACRFMKCLKVGMLKEGVRLD, the abundance fitness is -0.253 ± 0.065.
As for KRLCLVCGDIASGYHYGVASCEACKAFFKRTIQGNIEYSCDATNECEITKRRRKSCQACRFMKCLKVGMLKEGVRLD, the figure is 0.213 ± 0.059; as for KRLCLVCGDIASGYHYGVASCEACKAFFKRTIQGNIEYSCNATNECEITKRRRKSCQACRFMKCLKVGMLKEGVRLD, 0.123 ± 0.074; as for KRLCLVCGDIASGYHYGVASCEACKAFFKRTIQGNIEYSCCATNECEITKRRRKSCQACRFMKCLKVGMLKEGVRLD, -0.045 ± 0.057.
As for KRLCLVCGDIASGYHYGVASCEACKAFFKRTIQGNIEYNCPATNECEITKRRRKSCQACRFMKCLKVGMLKEGVRLD, the figure is 0.397 ± 0.1; as for KRLCLVCGDIASGYHYGVASCEACKAFFKRTIQGNIEYMCPATNECEITKRRRKSCQACRFMKCLKVGMLKEGVRLD, 0.39 ± 0.048.
As for KRLCLVCGDIASGYHYGVASCEACKAFFKRTIQGNIEYTCPATNECEITKRRRKSCQACRFMKCLKVGMLKEGVRLD, the abundance fitness was determined as 0.254 ± 0.053.
Take KRLCLVCGDIASGYHYGVASCEACKAFFKRTIQGNIEYYCPATNECEITKRRRKSCQACRFMKCLKVGMLKEGVRLD: the abundance fitness worked out at 0.283 ± 0.089.
As for KRLCLVCGDIASGYHYGVASCEACKAFFKRTIQGNIEYWCPATNECEITKRRRKSCQACRFMKCLKVGMLKEGVRLD, the figure is 0.22 ± 0.047; as for KRLCLVCGDIASGYHYGVASCEACKAFFKRTIQGNIEYVCPATNECEITKRRRKSCQACRFMKCLKVGMLKEGVRLD, 0.294 ± 0.037.
As for KRLCLVCGDIASGYHYGVASCEACKAFFKRTIQGNIEYPCPATNECEITKRRRKSCQACRFMKCLKVGMLKEGVRLD, the figure is 0.089 ± 0.067; as for KRLCLVCGDIASGYHYGVASCEACKAFFKRTIQGNIEYSCPGTNECEITKRRRKSCQACRFMKCLKVGMLKEGVRLD, -0.025 ± 0.037; as for KRLCLVCGDIASGYHYGVASCEACKAFFKRTIQGNIEYSCPWTNECEITKRRRKSCQACRFMKCLKVGMLKEGVRLD, -0.043 ± 0.043.
As for KRLCLVCGDIASGYHYGVASCEACKAFFKRTIQGNIEYSCPETNECEITKRRRKSCQACRFMKCLKVGMLKEGVRLD, the figure is 0.027 ± 0.055; as for KRLCLVCGDIASGYHYGVASCEACKAFFKRTIQGNIEYSCPDTNECEITKRRRKSCQACRFMKCLKVGMLKEGVRLD, 0.045 ± 0.065; as for KRLCLVCGDIASGYHYGVASCEACKAFFKRTIQGNIEYSCPVTNECEITKRRRKSCQACRFMKCLKVGMLKEGVRLD, -0.153 ± 0.049.
In the case of KRLCLVCGDIASGYHYGVASCEACKAFFKRTIQGNIEYSCPKTNECEITKRRRKSCQACRFMKCLKVGMLKEGVRLD, the abundance fitness was -0.087 ± 0.062.
As for KRLCLVCGDIASGYHYGVASCEACKAFFKRTIQGNIEYSCPLTNECEITKRRRKSCQACRFMKCLKVGMLKEGVRLD, the figure is -0.064 ± 0.042.
Consider KRLCLVCGDIASGYHYGVASCEACKAFFKRTIQGNIEYSCPQTNECEITKRRRKSCQACRFMKCLKVGMLKEGVRLD, for which the abundance fitness was -0.191 ± 0.068.
As for KRLCLVCGDIASGYHYGVASCEACKAFFKRTIQGNIEYSCPHTNECEITKRRRKSCQACRFMKCLKVGMLKEGVRLD, the figure is -0.445 ± 0.13.
